{
  "source": "the supplement of paper PMC10126150",
  "note": "± gives the standard deviation of the averaged measurements.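 Further: ATP exposure 15 min at 22 °C before imaging.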",
  "data": [
    {"tested_on": "ATP", "test": "switch fluorescence ratio, 500 uM ATP over buffer (Cy3 cluster intensity, sum of 5 cycles each) (fold (ratio)); higher = stronger signal-on switching upon ATP binding; sequences stand for … in TCGTCGGCAGCGTCAGATGTGTATAAGAGACAGTTTTTTTTTTTTTTTTTTTTTTTTT…TC", "conditions": "aptamer strand: ATP DNA aptamer (quencher-CACCTGGGGGAGTATTGCGGAGGAAGG + anchor), 100 nM annealed; ATP concentration: 500 uM", "outline": "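Five buffer/ATP imaging cycles were run on Cy3-labelled switching-strand clusters on a modified Illumina MiSeq flow-cell, with NaOH stripping and re-annealing between cycles. In each cycle, clusters annealed to 100 nM quencher-labelled ATP aptamer were imaged in selection buffer, then after 15 min with 500 uM ATP at 22 °C. Per cluster, the fluorescence ratio is summed target-cycle over summed buffer-cycle Cy3 intensity, averaged per switch-domain sequence. Only clusters within 100-1000 RFU were kept.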", "values": [
      {"sequence": "ATCAGTTGTT", "switch fluorescence ratio": "1.0008 ± 0.00044"},
      {"sequence": "CCAGGTTTGC", "switch fluorescence ratio": "1.08 ± 0.067"},
      {"sequence": "AAGGGGTATC", "switch fluorescence ratio": "1.02 ± 0.05"},
      {"sequence": "GATTCGGGCG", "switch fluorescence ratio": "1 ± 0.069"},
      {"sequence": "GGACTAGTTA", "switch fluorescence ratio": "0.99 ± 0.021"},
      {"sequence": "AGGGGCGTGC", "switch fluorescence ratio": "0.977 ± 0.015"},
      {"sequence": "AGATCGTGAG", "switch fluorescence ratio": "0.97 ± 0.038"},
      {"sequence": "GAGGGAAACA", "switch fluorescence ratio": "1.01 ± 0.017"},
      {"sequence": "ACGAAGAGTT", "switch fluorescence ratio": "1.05 ± 0.019"},
      {"sequence": "GCATTTTATA", "switch fluorescence ratio": "1.02 ± 0.012"},
      {"sequence": "CTTTCAAAAA", "switch fluorescence ratio": "1.03 ± 0.015"},
      {"sequence": "ACCATATTTG", "switch fluorescence ratio": "1.04 ± 0.058"},
      {"sequence": "TTGGTTTTAG", "switch fluorescence ratio": "1 ± 0.033"},
      {"sequence": "GGGGATTCAT", "switch fluorescence ratio": "0.986 ± 0.012"},
      {"sequence": "CCAGGTAAGT", "switch fluorescence ratio": "1.11 ± 0.11"},
      {"sequence": "TCTAATGAGG", "switch fluorescence ratio": "1.006 ± 0.0063"},
      {"sequence": "GTTCGGGGGG", "switch fluorescence ratio": "1 ± 0.032"},
      {"sequence": "GCCGCCGTAA", "switch fluorescence ratio": "1.3 ± 0.079"},
      {"sequence": "GTCGCCGACC", "switch fluorescence ratio": "0.996 ± 0.038"},
      {"sequence": "CCGGACAGCG", "switch fluorescence ratio": "0.99 ± 0.038"},
      {"sequence": "TTATTACCTA", "switch fluorescence ratio": "1.06 ± 0.049"},
      {"sequence": "AACGGGACGT", "switch fluorescence ratio": "0.961 ± 0.06"},
      {"sequence": "TCTTGGACGG", "switch fluorescence ratio": "0.985 ± 0.021"},
      {"sequence": "CGCGTTTTTT", "switch fluorescence ratio": "1.07 ± 0.12"},
      {"sequence": "ATCGAGGGA", "switch fluorescence ratio": "0.995 ± 0.061"},
      {"sequence": "CGGGTGTGAG", "switch fluorescence ratio": "1.006 ± 0.0055"},
      {"sequence": "TTTGTTGGGA", "switch fluorescence ratio": "1.02 ± 0.013"},
      {"sequence": "GCCCAGACGG", "switch fluorescence ratio": "1.31 ± 0.41"},
      {"sequence": "CACCATGTTC", "switch fluorescence ratio": "0.989 ± 0.032"},
      {"sequence": "GTGGGTCGGT", "switch fluorescence ratio": "0.979 ± 0.036"},
      {"sequence": "ATTATGTCCA", "switch fluorescence ratio": "0.96991 ± 0.00059"},
      {"sequence": "GGGAGTTAAA", "switch fluorescence ratio": "0.972 ± 0.013"},
      {"sequence": "ACTTGGCACA", "switch fluorescence ratio": "1.08 ± 0.054"},
      {"sequence": "TATCATTTTG", "switch fluorescence ratio": "0.986 ± 0.057"},
      {"sequence": "TTTTAAAACA", "switch fluorescence ratio": "1.02 ± 0.029"},
      {"sequence": "CATCGGTATA", "switch fluorescence ratio": "1.06 ± 0.017"},
      {"sequence": "TTTTAATCAT", "switch fluorescence ratio": "1.6 ± 0.88"},
      {"sequence": "TAAAGTGGGC", "switch fluorescence ratio": "1.04 ± 0.038"},
      {"sequence": "CGCTATGTGG", "switch fluorescence ratio": "1.02 ± 0.041"},
      {"sequence": "AGGGAGGAGT", "switch fluorescence ratio": "0.988 ± 0.026"},
      {"sequence": "TTAGGGTGGG", "switch fluorescence ratio": "1.01 ± 0.053"},
      {"sequence": "GGCAGAGGCT", "switch fluorescence ratio": "1.03 ± 0.031"},
      {"sequence": "TTACTGGAG", "switch fluorescence ratio": "1.02 ± 0.06"},
      {"sequence": "ACCTGATATA", "switch fluorescence ratio": "1.03 ± 0.021"},
      {"sequence": "CACCTTAATT", "switch fluorescence ratio": "1.037 ± 0.0075"},
      {"sequence": "AGAAGCGACA", "switch fluorescence ratio": "0.994 ± 0.032"},
      {"sequence": "CCTGCGTTTT", "switch fluorescence ratio": "1.75 ± 0.32"},
      {"sequence": "CGTTCGTGTG", "switch fluorescence ratio": "1.017 ± 0.0044"},
      {"sequence": "GGGTTCTTC", "switch fluorescence ratio": "1.05 ± 0.1"},
      {"sequence": "TACTGGGTCG", "switch fluorescence ratio": "1.01 ± 0.043"},
      {"sequence": "AAAAGATGGG", "switch fluorescence ratio": "1.02 ± 0.0016"},
      {"sequence": "GTGTAAGGTA", "switch fluorescence ratio": "1.02 ± 0.018"},
      {"sequence": "TGCATCATTG", "switch fluorescence ratio": "0.988 ± 0.039"},
      {"sequence": "GCATGAATCT", "switch fluorescence ratio": "1.014 ± 0.0084"},
      {"sequence": "TACGGATCGT", "switch fluorescence ratio": "0.974 ± 0.03"},
      {"sequence": "CATCAGTTGA", "switch fluorescence ratio": "1.02 ± 0.018"},
      {"sequence": "TGGGGTTAAA", "switch fluorescence ratio": "0.997 ± 0.016"},
      {"sequence": "TTGTGGATGG", "switch fluorescence ratio": "0.978 ± 0.039"},
      {"sequence": "ATTATGGGGT", "switch fluorescence ratio": "1 ± 0.017"},
      {"sequence": "CTTAGCCACT", "switch fluorescence ratio": "1.036 ± 0.0065"},
      {"sequence": "TGCGAAGGTT", "switch fluorescence ratio": "1.04 ± 0.069"},
      {"sequence": "CCAGGCTTAA", "switch fluorescence ratio": "1.06 ± 0.036"},
      {"sequence": "CGGTATCCGT", "switch fluorescence ratio": "0.978 ± 0.062"},
      {"sequence": "TCGATTTCTT", "switch fluorescence ratio": "1.1 ± 0.077"},
      {"sequence": "TTTTATTGTT", "switch fluorescence ratio": "1.01 ± 0.034"},
      {"sequence": "GGGTGACGAG", "switch fluorescence ratio": "1 ± 0.038"},
      {"sequence": "TACTGGAAGG", "switch fluorescence ratio": "0.941 ± 0.019"},
      {"sequence": "TCTAAAAAGG", "switch fluorescence ratio": "0.998 ± 0.025"},
      {"sequence": "GATATGCGTC", "switch fluorescence ratio": "1.04 ± 0.0086"},
      {"sequence": "GCTGTTTCCC", "switch fluorescence ratio": "0.989 ± 0.024"},
      {"sequence": "CTGGGGGCGC", "switch fluorescence ratio": "0.996 ± 0.03"},
      {"sequence": "TAACATCTTC", "switch fluorescence ratio": "1.01 ± 0.079"},
      {"sequence": "TATTAGTGGG", "switch fluorescence ratio": "0.979 ± 0.025"},
      {"sequence": "GTTTTGTGTT", "switch fluorescence ratio": "0.992 ± 0.0047"},
      {"sequence": "GCCATAGGTC", "switch fluorescence ratio": "1.012 ± 0.0043"},
      {"sequence": "CAGCGGCTGT", "switch fluorescence ratio": "0.966 ± 0.026"},
      {"sequence": "TTAGTAGGGT", "switch fluorescence ratio": "0.983 ± 0.04"},
      {"sequence": "TACTGGGGGA", "switch fluorescence ratio": "1.07 ± 0.03"},
      {"sequence": "TCTGTAGTGG", "switch fluorescence ratio": "1.03 ± 0.014"},
      {"sequence": "CGACAGCGGC", "switch fluorescence ratio": "2.11 ± 0.094"},
      {"sequence": "CATCAAGGGA", "switch fluorescence ratio": "1.02 ± 0.045"},
      {"sequence": "CTTAACAGAA", "switch fluorescence ratio": "0.9912 ± 0.0059"},
      {"sequence": "TTTTTTATCC", "switch fluorescence ratio": "1.03 ± 0.089"},
      {"sequence": "TTAGTTGGAT", "switch fluorescence ratio": "1.04 ± 0.029"},
      {"sequence": "GGGGCGAGGT", "switch fluorescence ratio": "0.9974 ± 0.0041"},
      {"sequence": "GTGGCATTTT", "switch fluorescence ratio": "1.01 ± 0.03"},
      {"sequence": "CCGGCGGTTT", "switch fluorescence ratio": "1.04 ± 0.029"},
      {"sequence": "AACGACGGGG", "switch fluorescence ratio": "1.01 ± 0.033"},
      {"sequence": "AATTGGGTAT", "switch fluorescence ratio": "1.0014 ± 0.00066"},
      {"sequence": "ACGGACCATT", "switch fluorescence ratio": "1.27 ± 0.014"},
      {"sequence": "GATATGGAAG", "switch fluorescence ratio": "1.13 ± 0.23"},
      {"sequence": "GTTGGTATTC", "switch fluorescence ratio": "0.9965 ± 0.0086"},
      {"sequence": "GGCAAAAATT", "switch fluorescence ratio": "1.01 ± 0.017"},
      {"sequence": "TGGCGTGGGA", "switch fluorescence ratio": "1 ± 0.035"},
      {"sequence": "CAACGGGGGA", "switch fluorescence ratio": "1 ± 0.032"},
      {"sequence": "GAATCAGCGG", "switch fluorescence ratio": "0.989 ± 0.018"},
      {"sequence": "CGACGGGTTT", "switch fluorescence ratio": "1.08 ± 0.035"},
      {"sequence": "GTTCTGTCGG", "switch fluorescence ratio": "1.002 ± 0.01"},
      {"sequence": "ATCTTTGTTG", "switch fluorescence ratio": "0.987 ± 0.018"},
      {"sequence": "GGGGGTCGGG", "switch fluorescence ratio": "1 ± 0.036"}
    ]}
  ]
}
